The term stoichiometry N denotes the number of molecules, sites or subunits per partner or assembly.

The series “negative-staining TEM” concerns the molecule itself. Description: negative-staining TEM.
The series “SEC-MALS” deals with the molecule itself. The series is described as follows: SEC-MALS.
The series “SEC” deals with the molecule itself. The series is described as follows: SEC.

B1: tag-cleaved SSNA1 S89A (natural protein, human)
chain: GPMTQQGAALQNYNNELVKCIEELCQKREELCRQIQEEEDEKQRLQNEVRQLTEKLARVNENLARKIASRNEFDRTIAETEAAYLKILESAQTLLSVLKREAGNLTKATAPDQKSSGGRDS
For B1, the binding result in the series “negative-staining TEM” is given as “binds”.

B2: tag-cleaved SSNA1 S89D (natural protein, human)
chain: GPMTQQGAALQNYNNELVKCIEELCQKREELCRQIQEEEDEKQRLQNEVRQLTEKLARVNENLARKIASRNEFDRTIAETEAAYLKILESDQTLLSVLKREAGNLTKATAPDQKSSGGRDS
Regarding B2, the “stoichiometry N” value in “SEC-MALS” was 2.

B3: tag-cleaved SSNA1 (full-length human SSNA1, 1-119) (natural protein)
chain: GPMTQQGAALQNYNNELVKCIEELCQKREELCRQIQEEEDEKQRLQNEVRQLTEKLARVNENLARKIASRNEFDRTIAETEAAYLKILESSQTLLSVLKREAGNLTKATAPDQKSSGGRDS
As to B3, in “SEC”, the binding result is on record as “binds”.

B4: tag-cleaved SSNA1 1-97 (domain or fragment, human)
chain: GPMTQQGAALQNYNNELVKCIEELCQKREELCRQIQEEEDEKQRLQNEVRQLTEKLARVNENLARKIASRNEFDRTIAETEAAYLKILESSQTLLSVLK
On to B4, for which the binding result in the series “negative-staining TEM” is recorded as “binds”.

B5: tag-cleaved SSNA1 1-90 (domain or fragment, human)
chain: GPMTQQGAALQNYNNELVKCIEELCQKREELCRQIQEEEDEKQRLQNEVRQLTEKLARVNENLARKIASRNEFDRTIAETEAAYLKILESSQ
On to B5, for which, in the series “SEC-MALS”, the “stoichiometry N” value was 2.

B6: tag-cleaved SSNA1 1-104 (domain or fragment, human)
chain: GPMTQQGAALQNYNNELVKCIEELCQKREELCRQIQEEEDEKQRLQNEVRQLTEKLARVNENLARKIASRNEFDRTIAETEAAYLKILESSQTLLSVLKREAGNLT
As for B6, the binding result in “SEC” was “binds”.

Values taken from article doi:10.1101/2025.04.28.648957 (bioRxiv, 2025).
